Experimental data published in patent US20240424071A1, “NOVEL MUTANT OF RECOMBINANT GANODERMA LUCIDUM IMMUNOMODULATORY PROTEIN AND USE THEREOF” (CHANGCHUN INTELLICROWN PHARMACEUTICAL CO., LTD., priority 2021, published 2024).

What was measured:
[1] = system: bel-7402; assay: Tumor cell line proliferation inhibition (Cell Titer-Glo), bel-7402; type: cell-based; settings: bel-7402, liver cancer, 72 hours
Source text: (§3) This experiment utilizes Promega Cell Titer-Glokit to detect the cell viability. This reagent comprises recombinant luciferase and fluorescein, and the luciferase catalyzes the oxidization of a substrate and releases a luminescence signal. The oxidization depends on the ATPs released by the lysis of living cells, and the luminescence signal can indirectly reflect the number of the living cells.

[2] = system: Calu-1; assay: Tumor cell line proliferation inhibition (Cell Titer-Glo), Calu-1; type: cell-based; settings: Calu-1, lung cancer, 72 hours
Source text: as §3

[3] = system: HLE; assay: Tumor cell line proliferation inhibition (Cell Titer-Glo), HLE; type: cell-based; settings: liver cancer, 72 hours
Source text: as §3

[4] = system: function of respiratory system in rats; assay: Safety pharmacology, effect on function of respiratory system; type: in vivo, SD rats; settings: 0.5, 2, 8 mg/kg single intravenous injection
Description: The administration volume was 10 mL/kg. On the day before administration, 10 min after administration, and 24 hours after administration, the animals were placed into a tracing box for detecting the index of respiratory function of the animals.

[5] = system: function of cardiovascular system in conscious Bama miniature pigs; assay: Safety pharmacology, effect on function of cardiovascular system; type: in vivo
Description: 8 Bama miniature pigs (4 pigs/sex, common grade) were used, and a cross-over design was adopted. […] Data in various indexes including ECG, blood pressure, and temperature in the animals from at least 2 hours before administration to at least 48 hours after administration were collected, and statistical analysis and evaluation of various index data of ECG, blood pressure, and temperature at a time point within 1.5 hours before administration, and at time points of 0.25 hours(±5 min), 0.5 hours(±5 min), 1 hour(±10 min), 1.5 hours(±10 min), 2 hours(±10 min), 3 hours(±15 min), 4 hours(±20 min), 6 hours(±30 min), 8 hours(±45 min), 12 hours(±45 min), 24 hours(±1 h), 48 hours(±1 h) after administration.

[6] = system: MDA-MB-453; assay: Tumor cell line proliferation inhibition (Cell Titer-Glo), MDA-MB-453; type: cell-based; settings: MDA-MB-453, breast cancer, 72 hours
Source text: as §3

[7] = system: human erythrocytes; assay: In vitro hemolysis experiment of human erythrocytes; type: cell-based; settings: 2.5 mg/mL preparation, 2% human erythrocyte suspension, 3 hours, in vitro test tube method
Description: The used concentration of the preparation was 2.5 mg/mL.
Erythrocytes collected from a healthy person was prepared into a 2% (v/v) suspension with sodium chloride injection. Different volumes (2.5 mL˜2.9 mL) of sodium chloride injection and different volumes (0.5 mL˜0.1 mL) of the test products were added into glass test tubes containing 2.0 mL of 2% human erythrocyte suspension, respectively. At the same time, 3.0 mL of sodium chloride injection and 3.0 mL of sterilized water for injection were added into glass test tubes containing 2.0 mL of 2% human erythrocyte suspension and taken as negative control and positive controls, respectively. The total volume of each test tube was 5.0 mL. The tubes were incubated in an electrothermal incubator for 3 hours, and observed for the dissolution and aggregation of erythrocytes.

[8] = system: OVCAR8; settings: OVCAR8, ovarian cancer, 72 hours
Source text: (§1) This experiment utilizes Promega Cell Titer-Glokit to detect the cell viability. This reagent comprises recombinant luciferase and […], and the luciferase catalyzes the oxidization of a substrate and releases a luminescence signal. The oxidization depends on the ATPs released by the lysis of living cells, and the luminescence signal can indirectly reflect the number of the living cells.
(§2) The particular steps were as follows: • 1) Target cells were collected and counted, and then inoculated into a 96-well plate; • 2) The 96-well plate was placed in a cell incubator at 37° C., and incubated for about 16-20 hours; • 3) A pre-prepared working solution of the sample to be tested and a working solution of the positive control were added into the corresponding wells; • 4) The cells were cultured in the cell incubator at 37° C. for additional 72 hours; • 5) After incubation, a working solution of Cell TiterGlo testing reagent was added into the corresponding well, which stood at room temperature to stabilize the signal; • 6) PHERAStar FSX was used to read the plate.

[9] = system: SNU-398; settings: SNU-398, liver cancer, 72 hours
Source text: as §1, §2

[10] = system: LI6669 human liver cancer orthotopic transplantation tumor; assay: LI6669 human liver cancer orthotopic transplantation tumor model (PDX), survival; type: in vivo, BALB/c nude mouse; settings: for Median Survival: solvent control […] days
Source text: LI6669 is a HuPrime® orthotopic transplantation model originated from a patient's liver cancer.
Tumor tissue was collected from a LI6669 tumor-bearing mouse, a HuPrime® orthotopic transplantation model of liver, and cut to tumor pieces with a diameter of 2-3 mm, which were inoculated into the upper left lobe of liver of a Balb/c nude mouse.
When the average tumor volume of the tumor-bearing mice reached about 50-150 mm^3, the mice were randomly grouped by weight according to Table 3 of “3. Design of Experiment”. The grouping day was set as Day 0, and the administration began on Day 1. […].
After tumor cell inoculation, route monitoring comprises the tumor growth and the effect of treatment on normal behaviors of animals, specially including the activity, food intake and water consumption, weight gain or loss, eyes, fur of experimental animals, and other abnormal conditions. The clinical symptoms observed during the experiments were all recorded in the original data. After drug administration, the mice were measured twice a week for their weights. Observation was made to record the mouse requiring euthanasia and the corresponding survival time.

[11] = 3 mg/kg intravenous, vs adjuvant control

B1: recombinant protein as shown in SEQ ID NO: 14: recombinant protein: spacer peptide EAEA (SEQ ID NO: 8) at N-terminus of rLZ-8 mutant (SEQ ID NO: 13) (protein)
chain: EAEAMSDTALIFRLAWDVKKLSFDYTPNWGRGNPNNFIDTVTFPKVLTDKAYTYRVAVSGRNLGVKPSYAVESKGSQKVNFLEYNSGYGIADTNTIQVFVVDPDTNNDFIIAQWN
modifications: EAEA-rLZ-8 mutant (D70K)
[1]
  Absolute IC50: 10.45 µg/mL
  Relative IC50: 10 µg/mL
[2]
  Absolute IC50: 6.998 µg/mL
  Relative IC50: 6.43 µg/mL
[3]
  Absolute IC50: 27.79 µg/mL
  Relative IC50: 23.73 µg/mL
[4]; SD rats
  effect on the function of the respiratory system: did not have significant effect on the function of the respiratory system
[4]; 10 min and 24 h after administration, vs adjuvant control
  tidal volume, ventilation volume per minute, and respiratory frequency: no statistical difference (P>0.05) and change trend were found
[5]; 0.5 mg/kg and 3 mg/kg intravenous
  other ECG indexes (QRS time limit, QRS voltage, ST segment voltage, Tp-e interval, P wave width), blood pressure indexes and temperature: No statistical difference (P>0.05) was found
[5]; [11]
  QTcB interval: shortened during 2 h to 4 h
  RR interval, PR interval, and QT interval: heat rate-associated change occurred
  T wave voltage: increased during 0.5 h to 6 h
  heart rate: increased during 0.5 h to 6 h after administration
[5]; intravenous infusion within the range of pharmacodynamic dose
  effect on the cardiovascular function and temperature: did not have significant effect on the cardiovascular function and temperature
[6]
  Absolute IC50: 23.44 µg/mL
  Relative IC50: 22.12 µg/mL
[7]
  hemolysis or aggregation of human erythrocytes: does not cause hemolysis or aggregation of human erythrocytes in vitro
[8]
  Relative IC50: 11.91 µg/mL
[9]
  Relative IC50: 19.49 µg/mL
[10]; Group 3, 5 mg/kg QD i.v. for 28 days
  Median Survival: >28 days
[10]; Group 4, 2.5 mg/kg QD i.v. for 28 days
  Median Survival: 17 days
[10]; Group 5, 0.5 mg/kg QD i.v. for 28 days
  Median Survival: >28 days
[10]; all groups: 0.5, 2.5, 5 mg/kg QD and 5 mg/kg Q3D i.v.
  apparent mouse toxicity: none of the groups with the recombinant protein as shown in SEQ ID NO: 14 show apparent mouse toxicity
